# Results published in patent US20090029390A1 (KOREA INSTITUTE OF SCIENCE AND TECHNOLOGY, published 2009).
# Ends that are not written are not given here. * marks the point of attachment. FITC = O=C1OC2(c3ccc(O)cc3Oc3cc(O)ccc32)c2ccc(NC(=S)*)cc21; Ahx = NCCCCCC(=O)O
# B1: F-HIF-1α (786-826)[C800A] (peptide)
# peptide: {FITC-Ahx}-SMDESGLPQLTSYDAEVNAPIQGSRNLLQGEELLRALDQVN
# notes: Position 800 counts on full-length HIF-1α
# B2: N803A HIF-1α (786-826) peptide (peptide)
# peptide: SMDESGLPQLTSYDCEVAAPIQGSRNLLQGEELLRALDQVN
# notes: Unlabeled recombinant peptide with GST removed by thrombin; Position counts on full-length HIF-1α; also called N803A mutant peptide
# B3: T796D HIF-1α (786-826) peptide (peptide)
# peptide: SMDESGLPQLDSYDCEVNAPIQGSRNLLQGEELLRALDQVN
# notes: Unlabeled recombinant peptide with GST removed by thrombin; Position counts on full-length HIF-1α; also called T796D mutant peptide
# B4: F-HIF-1α (776-826, SEQ ID NO: 3) (peptide)
# peptide: {FITC-Ahx}-SDLACRLLGQSMDESGLPQLTSYDCEVNAPIQGSRNLLQGEELLRALDQVN
# modifications: cysteine pairing not given here
# notes: Synthetic fluorescein-labeled peptide from the C-TAD of human HIF-1α
# B5: F-HIF-1α (786-826, SEQ ID NO: 4) (peptide)
# peptide: {FITC-Ahx}-SMDESGLPQLTSYDCEVNAPIQGSRNLLQGEELLRALDQVN
# notes: Synthetic fluorescein-labeled peptide; also called untreated peptide
# B6: F-HIF-1α (788-822, SEQ ID NO: 6) (peptide)
# peptide: {FITC-Ahx}-DESGLPQLTSYDCEVNAPIQGSRNLLQGEELLRAL
# notes: Synthetic fluorescein-labeled peptide
# B7: F-HIF-1α (776-814, SEQ ID NO: 5) (peptide)
# peptide: {FITC-Ahx}-SDLACRLLGQSMDESGLPQLTSYDCEVNAPIQGSRNLLQ
# modifications: cysteine pairing not given here
# notes: as for B6
# Experiments:
# [1] = molecular target: T1, GST-p300 (truncated p300, amino acids 1-221) (Homo sapiens (Human), UniProt Q09472 300-520); test: fluorescence polarization, labeled peptide titrated with GST-p300
# T1 construct: Expressed in E. coli BL21 from pGEX-4T-1 and eluted as a GST fusion; GST was not removed; not shown: glutathione S-transferase (GST) tag encoded by the pGEX-4T-1 vector
# [2] = molecular target: T1, GST-p300 (truncated p300, amino acids …); test: fluorescence polarization competition against F-HIF-1α(786-826) for GST-p300
# [3] = molecular target: T2, GST-CBP (truncated human CBP, amino acids 1-450) (human, UniProt Q92793 1-450); test: fluorescence polarization, labeled peptide titrated with GST-CBP 0-3000 nM
# T2 construct: Expressed in E. coli BL21 from pGEX-KG and eluted as a GST fusion; GST was not removed; not shown: glutathione S-transferase (GST) tag encoded by the pGEX-KG vector
# Procedure: (§1) The binding affinity and features between the HIF-1α peptides and CBP or p300 proteins were analyzed by measuring the fluorescence polarization (FP) values that were changed by the formation of a protein-ligand complex through the interaction between the CBP or p300 proteins and the synthesized peptides that were manufactured by the method as described in above Example 1. The FP values were measured with a fluorescence spectrometer (Perkin-Elmer), which was set to have a slit width of 5 nm and a total integration time of 5 seconds. EBC Buffer (50 mM Tris and 120 mM NaCl; pH 8.0, 0.25% Nonidet P (NP)-40) was used for the binding reaction.
# (§2) To compare interactions between the four peptides derived from different regions in HIF-1α C-TAD with CBP or p300, these fluorescein-labeled HIF-1α peptides were mixed with CBP proteins at varying concentrations from 0 to 3000 nM under the conditions of above Example 2-2, and then the FP (fluorescence polarization) values were measured (FIG. 2A).
# [4] = molecular target: T2, GST-CBP (truncated human CBP, amino …); test: fluorescence polarization, 100 nM labeled peptide titrated with GST-CBP
# Procedure: as §1, §2
# T2 sequence (Q92793 1-450): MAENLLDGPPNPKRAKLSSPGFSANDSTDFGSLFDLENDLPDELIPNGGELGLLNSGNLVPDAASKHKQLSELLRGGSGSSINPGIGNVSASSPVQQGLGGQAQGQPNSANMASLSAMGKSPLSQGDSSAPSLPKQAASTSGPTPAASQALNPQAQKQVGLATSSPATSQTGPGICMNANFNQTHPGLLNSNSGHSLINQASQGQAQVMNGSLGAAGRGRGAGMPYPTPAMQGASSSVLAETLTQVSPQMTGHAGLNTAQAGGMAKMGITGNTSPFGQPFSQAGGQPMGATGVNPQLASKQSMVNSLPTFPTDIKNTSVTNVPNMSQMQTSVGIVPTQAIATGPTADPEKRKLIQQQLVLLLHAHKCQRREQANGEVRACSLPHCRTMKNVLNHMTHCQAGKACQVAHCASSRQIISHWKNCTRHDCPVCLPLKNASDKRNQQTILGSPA
# T1 sequence (Q09472 300-520): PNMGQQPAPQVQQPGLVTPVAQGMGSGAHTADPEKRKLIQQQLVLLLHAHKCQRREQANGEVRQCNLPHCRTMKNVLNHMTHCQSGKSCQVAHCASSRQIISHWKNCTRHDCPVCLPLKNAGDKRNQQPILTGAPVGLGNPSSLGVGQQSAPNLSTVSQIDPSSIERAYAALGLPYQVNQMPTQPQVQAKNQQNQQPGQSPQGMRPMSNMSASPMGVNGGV
binder,measurement,setting,value
B1,binding result,[1],binds
B2,binding result,[2],binds
B3,binding result,[2],binds
B4,Kd,[3],196 nM
same,Kd,[1],157 nM
B5,Kd,[3],175 nM
same,Kd,[1],180 nM
B6,binding result,[3],binds
same,binding result,[1],binds
B7,binding result,[4],no binding (tested: 3000 nM)
same,binding result,[1],no binding
